A protein production outcome set (Wang et al. 2014)

Assay: label from the status in PepcDB records

| Sequence | protein production |
| --- | --- |
| MKSTLIVIGNIILVILILFIYTMLWYYIGAKGKGIIFGVNLRKKEGLKAVAYWGIFWFLAFSFILSVASRSTISINNKITGILTYLGAISLALFCYLIIIFPITDLIRFILNKLGFSGSLREYMSIIYGRGISIFIAVIIIILFGFWHAIHQTTTNYNISINKKAGKLKQLNVVMVSDVHMGIMIRERGIDKLVTSINKLKPDVVFFCGDMVDESTPTSLEKYYSSAFKEIISKYGVYAITGNHEYATQNSEVAMNYMKKADIKVLEDKAVKVDNSFYVIGRNDAAGGKVKPLNEIMKNADKRLPIIALNHRPVALEEAEKNGVDLQLSGHTHEGQIFPFNFTTKLVFEDDYGYLKKKDFNLIVTSGYGTWGPPIRIGTKGEIVNIKIDFMN | failed |
| MKTAKRRAFAFATFAIAGLAACENTSSPSLPKDQVMAPGVDLRAAAKQDSSEAVEAGHRMIAAGEYELALRAFNRAALSRGALDAEILSGLGTANLGLGRLGQAEELLRRAVRDDAAQPVDYNNLGVLLMEQGNTAEALQYFRRAFALSNGENIAIRDNLRLALAKTENSATLEAEKSSEYKLVRRGNSDFVIRPTP | failed |
| MKTDFSLTQLADPDIAEADKILRACVHCGFCTATCPTYVLLGDELDSPRGRIYLIKEMLESDKPPTADVVKHIDRCLSCLACMTTCPSGVNYMHLVDQARVRIEKQYQRPFWDRVVREALSWMMPHPGMFRLGMWAARIVRPVAALLPGSHNLTHPTLLSRIKAMLALAPKHLPEPGPDSGTTFPAVGPKRGRVALLHGCAQQVLAPRINRAAINLLTRHGIEVVLAADEACCGALIHHLGRDTRTLEYARTNIKAWLAEIERGGLDAILVTTSGCGTVIKDYGYMLREDPEYAAAAAKVSALAKDISEYVSGLELSLPRPHDDVVVAYHSACSLQHGQKITQIPKELLSKTGFVVKDIPESHLCCGSAGTYNILQPDIATRLRDRKVANIASVKPDMIAAGNIGCMVQIASGTEVPVVHTIELLDWATGGPRPAPH | failed |
| MKTGKELKPGTVIRIDNDPWLVQKAEFTKSGRNSAIMKTKLKNLLTGYKTETVYGADDKLDDVILDRKEATLSFISGDTYTFMDTTDYTMYELNAEDIEAVLPFIEEGMTDVCEAVFFEDRLVSVDLPTTIVRQVDYTEGSARGDTSGKVMKPAKLKNGTELSVADFIEIGDMIEIDTREGGSYKGRAKV | failed |
| MKTGNLNPAPQQVTAPQNKARMDWPDIAKGISILGVVLLHVSLAIPGGQDTMMSHLNALLDPLRMPLFFMVSGFFAVKVLNQSFGELFRGRLWFYLVPYLLWTPVNLYLHRLEGTVFTGRAPGTWEWYSGSMLSATNMYWFLYFLVIFNLFLWATRKLPAWAIVALVASLWLLMPAYSEIEILRKSIIYLPTFLIGAYFRPLISRFAEAATRPKAIVFAAVLYVSGLALGVISNGLRDSENHGASVLWLMNLRDTFAHALGGNLTGFDMDHLPGMIIRIVSLPAGIVLCVWLGRIKPVGEFLKLIGRHTLPIYIGHATGLSLIFGFGLRWNFMEIDNFSDSLWHHTNTWMVIAFACAMLGGYLTYLISRVPVLGWTLVPPKLPEPDKTPAKAQADSHVKAQSAKPMNASTSSKTYGI | failed |
| MKTIEIFDPAMCCPTGLCGTNINPELMRIAVVIETLKRQGVVVTRHNLRDEPQVYVSNKTVNQYLQKNGAEALPITLVDGEIAVSKDYPTTKQMSEWTGINLD | not failed |
| MKTIHIYTNGRFEEKQSGIVREFPLVLHVNGREIATLISSPHDLRFLVAGFLRNQGFVERAEDFHMLAVCDDFGIANARIRGELPERLKPVLTSGCGTGVTFTLETPKIPPPLALPAITTDAVFRLMEELARRADNYRSHGGIHSAAVGDGEGNLLLFAEDIGRHNTLDRIAGEALFKGIDLAGTILVTSGRVSTEMAAKCARLGIALIASRTSATDMAVKMCDEAGIPLIGYVRGGKFTVYAHHERLAMAPPVGAIHELPLPASAQGRRIPGITGVILAGGQSRRMGSNKALLPYKGGRFIEAIHRQLAEIFDEVLLVTNNPEQYDFLPCRKVADIHPGMGALAGIHAGLHHAANPAAFMVACDMPYLNSDLIRHLATLADPGGVLIPESPAGLEPLHAVYGKGCLAAIETTLLSGERRIVSFFGRTNVNRVNAEQVALFDPDYATFSNINTPVDYYRLRDGERDELDAALGADRIAGLEHHHHHH | failed |
| MKTIIRQPQLYRFLKYCNESNLDKTVLDCGAGGDLPPLSIFVEDGYKTYGIEISDLQLKKAENFSRENNFKLNISKGDIRKLPFKDESMSFVYSYGTIFHMRKNDVKEAIDEIKRVLKPGGLACINFLTTKDERYNKGEKIGEGEFLQLERGEKVIHSYVSLEEADKYFKDMKVLFKEDRVVERINDGLKIKQGYVDYIAEKFSKSIL | not failed |
| MKTKGWGALAVLPLALALAGNVAAEEVKGKVKTVSVKAGQISLTVESKGVMLFRVTDGTTFANAASIREIHADDLLQVDYRVDGFDNVAKAVAKVVAKLPEGVTAMDTRELEALVAKGTEEGGYLLIDSRPAGKYNEAHIPTAVSIPFAELEKNPALLTASKDRLLVFYCGGVTUVLSPKSAGLAKKSGYEKVRVYLDGEPEWKKAELPLESSLAFVEKGNIVLIDLRSPEKVAAGHIPGAVGIPAADLAAAQAKFPAYRGAHLVFYSDSAEDLSQALELARDWNYKNATIFPGGIGAWQKAGKHLKTGAAAATVTYVKKLAPGEVGTEDFQAALKDGRTVVIDARAPGEFEKGHFKGAVNIPAEEAAKRLAEIPADRPVLVHCSTGTRAEMVYDLVKDKGYNLKYLKAGVEFAADGSYTISE | failed |
| MKTLCTHSLPKEKMPYLLRSGEGERYLFGRQVATVMANGRSTGDLFEIVLLSGGKGDAFPLHVHKDTHEGILVLDGKLELTLDGERYLLISGDYANIPAGTPHSYRMQSHRTRLVSYTMKGNVAHLYSVIGNPYDHAEHPPYASEEVSNERFAEAAAVADIVFLDEAKPACSAKLAELTELPDGAVPYVLESGEGDRLLTGDQLHRIVAAQKNTDGQFIVVSSEGPKGDRIVDHYHEYHTETFYCLEGQMTMWTDGQEIQLNPGDFLHVPANTVHSYRLDSHYTKMVGVLVPGLFEPFFRTLGDPYEGHIFPCEPQALRFDRILQNIEALDLKVMKP | not failed |
| MKTLFSIYLFLSLNPLFLEANEITWSKFLENFKNKNDDDKPKPLTIDKNNEKQQILDKNQQILKRALEKSLKFFFIFGYNYSQATFSTSNQTLTFVANSIGFNTATGLEHFLRNHPKVGFRIFSVYNYFHSVSLSQPQTLMVQNYGGALDFSWIFVDKNIYRFRSYLGIALEQGVLLVDTIKPGAITTIIPRTKKTFFQAPLRFGFIVDFIGYLSLQLGIEMPLVRNVFYTYNNHQERFKPRFNANLSLIVSF | failed |
| MKTLTTPAPTKSASFREGVFDSLPIVIGYMPVAFAFGMNAVKLGFTPLEGIFLSCIIYAGASQFVITALLSAGMSIWVAALTVMAMDIRHVLYGPALRHRIVQQLPTRKTALWAFGLTDEVFAAAATRLAKDNRRWSENWMIGVSLLAWLSWVLGTVIGAVFGNGPLDNYPAVEAALSFMLPALFLSFLLASFKRKQSLVVACALGGALLGLLLSSIPAAILLGILSGCLASLVNSATPQVNA | failed |
| MKTLVHLSDLHFGKTESQLVDAIAAEVRAVDSDLLVVSGDLTQRARKDEFLQARAFLDSLPGPRIVVPGNHDVPLWNVFARAMTPLSRYRRYIEADTDPFYADSEVAVVGINTARSLTIKDGRINVRQLKAATEKFAHMSDDITRIVVTHHPFEGRDLESDDGIVGRADLAMHAFSRSGVDIILSGHQHLHRAGSSARRYLIDGYAALLIQAGTAVSSRLRRAANSFNIIRIEHPRISVECRAWQPSQSGFETSASYSFRQGPGGWKPT | failed |
| MKTPTFGKREETLTYQTRYAAYIIVSKPENNTMVLVQAPNGAYFLPGGEIEGTETKEEAIHREVLEELGISVEIGCYLGEADEYFYSNHRQTAYYNPGYFYVANTWRQLSEPLERTNTLHWVAPEEAVRLLKRGSHRWAVEKWLAAAS | not failed |
| MKTRCGCKKIASYTVVKLILNRLDVAMNSTIRRWFASAGAMRRVFSTFAPYLGAGIKVTHIADDFSSATVEMRQHWYNTNYVGTHFGGSLYSMVDPMYMLLLMRSLGNDYIVWDKSASIDFIRPGKGVVKAHFELTDARLDEIREATADGDKYLPEWYIDIVDEAGTVVSRVHKVLYVRRKPAE | failed |
| MKTRMKITIAFVAVMVLSFTGYNVYKTQKAIQLSDVAMANVEALADGEGTNAGYCYLEDTWSTKRGYKYFCDSKTDKNTIYPCPSSMESGWYDDNKQDRCTK | failed |
